Results from patent US20190170753A1 (ICAHN SCHOOL OF MEDICINE AT MOUNT SINAI, published 2019).
Where no end group is shown, it is not given here.

Experiments:
[1] = biological target: T1, Mut1T110N biotin labeled HCV core peptide (hepatitis C virus, biotin labeled (position not given)); experiment: capture EIA; Ab 500 ng/mL; bt-peptide 500 ng/mL
T1 peptide: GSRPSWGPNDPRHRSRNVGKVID

[2] = biological target: T2, Mut6T110S biotin labeled HCV core peptide (hepatitis C virus, biotin labeled (position not given)); experiment: capture EIA; Ab 500 ng/mL; bt-peptide 500 ng/mL
[3] = biological target: T3, C113WT biotin labeled HCV core peptide (hepatitis C virus, also: biotin labeled, position not given here); experiment: capture EIA; Ab 500 ng/mL; bt-peptide 500 ng/mL
T3 peptide: RGSRPSWGPTD

[4] = biological target: T4, C113T109N biotin labeled HCV core peptide (hepatitis C virus, also: biotin labeled, position not given here); experiment: capture EIA; Ab 500 ng/mL; bt-peptide 500 ng/mL
T4 construct: also called C113T110N
T4 peptide: RGSRPSWGPND

[5] = biological target: T5, 92-133 biotin labeled HCV core peptide (hepatitis C virus, UniProt Q9WMX2 92-133, chain 1: biotin label (bt-pep). Its position and any spacer are not visible in the passages shown.); experiment: capture EIA; Ab 500 ng/mL; bt-peptide 500 ng/mL
T5 construct: Only the label 92-133 is printed
T5 peptide: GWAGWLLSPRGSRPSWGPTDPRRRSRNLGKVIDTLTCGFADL
Procedure: (§1) Assay wells were coated with sheep anti-mouse IgG Fc specific antibody and incubated overnight. The coating solution was then removed; the wells blocked using BSA/tween in PBS and then washed with dH2O. […] Next, biotin labeled peptides (diluted to 500 ng/mL in block) were added, the plates incubated for 10 minutes while shaking at 700 rpm and then washed. Peroxidase conjugated streptavidin (diluted to 200 ng/mL in block) was then added to all assay wells, incubated for 20 minutes while shaking at 700 rpm and then washed. Finally, color was developed using OPD and signal quenched using 1N H₂SO₄. Signal was read at 492 nm.

[6] = biological target: T6, WT1STHV biotin labeled HCV core peptide (hepatitis C virus, biotin labeled (position not given)); experiment: capture EIA; Ab 500 ng/mL; bt-peptide 500 ng/mL
T6 peptide: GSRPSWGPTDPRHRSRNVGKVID

[7] = biological target: T1, Mut1T110N biotin labeled HCV core …; experiment: capture EIA; Ab 62.5 ng/mL; bt-peptide 500 ng/mL
Procedure: as §1

[8] = biological target: T2, Mut6T110S biotin labeled HCV core …; experiment: capture EIA; Ab 62.5 ng/mL; bt-peptide 500 ng/mL
Procedure: as §1

[9] = biological target: T3, C113WT biotin labeled HCV core peptide; experiment: capture EIA; Ab 62.5 ng/mL; bt-peptide 500 ng/mL
Procedure: as §1

[10] = biological target: T4, C113T109N biotin labeled HCV core …; experiment: capture EIA; Ab 62.5 ng/mL; bt-peptide 500 ng/mL
Procedure: as §1

[11] = biological target: T5, 92-133 biotin labeled HCV core peptide; experiment: capture EIA; Ab 62.5 ng/mL; bt-peptide 500 ng/mL
Procedure: as §1

[12] = biological target: T6, WT1STHV biotin labeled HCV core peptide; experiment: capture EIA; Ab 62.5 ng/mL; bt-peptide 500 ng/mL
Procedure: as §1

[13] = biological target: T1, Mut1T110N biotin labeled HCV core …; experiment: capture EIA; Ab 0.977 ng/mL; bt-peptide 500 ng/mL
Procedure: as §1

[14] = biological target: T2, Mut6T110S biotin labeled HCV core …; experiment: capture EIA; Ab 0.977 ng/mL; bt-peptide 500 ng/mL
Procedure: as §1

[15] = biological target: T3, C113WT biotin labeled HCV core peptide; experiment: capture EIA; Ab 0.977 ng/mL; bt-peptide 500 ng/mL
Procedure: as §1

[16] = biological target: T4, C113T109N biotin labeled HCV core …; experiment: capture EIA; Ab 0.977 ng/mL; bt-peptide 500 ng/mL
Procedure: as §1

[17] = biological target: T5, 92-133 biotin labeled HCV core peptide; experiment: capture EIA; Ab 0.977 ng/mL; bt-peptide 500 ng/mL
Procedure: as §1

[18] = biological target: T6, WT1STHV biotin labeled HCV core peptide; experiment: capture EIA; Ab 0.977 ng/mL; bt-peptide 500 ng/mL
Procedure: as §1

[19] = biological target: T1, Mut1T110N biotin labeled HCV core …; experiment: capture EIA; Ab 1.953 ng/mL; bt-peptide 500 ng/mL
Procedure: as §1

[20] = biological target: T2, Mut6T110S biotin labeled HCV core …; experiment: capture EIA; Ab 1.953 ng/mL; bt-peptide 500 ng/mL
Procedure: as §1

[21] = biological target: T3, C113WT biotin labeled HCV core peptide; experiment: capture EIA; Ab 1.953 ng/mL; bt-peptide 500 ng/mL
Procedure: as §1

[22] = biological target: T4, C113T109N biotin labeled HCV core …; experiment: capture EIA; Ab 1.953 ng/mL; bt-peptide 500 ng/mL
Procedure: as §1

[23] = biological target: T6, WT1STHV biotin labeled HCV core peptide; experiment: capture EIA; Ab 1.953 ng/mL; bt-peptide 500 ng/mL
Procedure: as §1

[24] = biological target: T1, Mut1T110N biotin labeled HCV core …; experiment: capture EIA; Ab 15.6 ng/mL; bt-peptide 500 ng/mL (summary of Table 7)
Procedure: as §1

[25] = biological target: T4, C113T109N biotin labeled HCV core …; experiment: as above
Procedure: as §1

[26] = biological target: T5, 92-133 biotin labeled HCV core peptide; experiment: as above
Procedure: as §1

B1: Neo4 mouse monoclonal antibody (antibody, V domains shown)
VH: QIQLKESGPAVIKPSQSLSLTCIVSGFSITSSVYCWQWIRQPPGKGLEWMGRICYDGSVDYSPSITSRGTISRDTSLNKVFFQLSSVTNEDTAMYYCSRENHIDYYDTTYPSFDVWGAGTTVTVSS
VL: DIVLTQSPASLIVSLGQRATISCRASKSVNEYGYTYMHWYQQKPGLPPKLLIYLASNLDSGVPARFSGSGSGTDFTLNIHPVEEEDAATYYCQHSRELPYTFGGGTKLEIKR
notes: Mouse hybridoma antibody, isotype IgG1, purified with Protein G; also called HCV Neo4
signal at 492 nm [1]: 0.065 A492 | signal at 492 nm [2]: 1.17 A492 | signal at 492 nm [3]: 0.0561 A492 | signal at 492 nm [4]: 0.0803 A492 | signal at 492 nm [5]: 1.48 A492 | signal at 492 nm [6]: 1.91 A492 | signal at 492 nm [7]: 0.139 A492 | signal at 492 nm [8]: 1.11 A492 | signal at 492 nm [9]: 0.0626 A492 | signal at 492 nm [10]: 0.111 A492 | signal at 492 nm [11]: 1.47 A492 | signal at 492 nm [12]: 1.85 A492 | signal at 492 nm [13]: 0.0619 A492 | signal at 492 nm [14]: 0.0644 A492 | signal at 492 nm [15]: 0.0584 A492 | signal at 492 nm [16]: 0.0784 A492 | signal at 492 nm [17]: 0.0978 A492 | signal at 492 nm [18]: 0.22 A492 | signal at 492 nm [19]: 0.0728 A492 | signal at 492 nm [20]: 0.0717 A492 | signal at 492 nm [21]: 0.0765 A492 | signal at 492 nm [22]: 0.0853 A492 | signal at 492 nm [23]: 0.409 A492 | signal at 492 nm [24]: 0.0771 A492 | signal at 492 nm [25]: 0.0736 A492 | signal at 492 nm [26]: 0.806 A492
